Drawing on PMC9071441 (2022), this text covers response for eight variants.

B1: mNeonGreen-tagged T-bet DNA binding domain (aa 135-326), wild type [mouse] / mTagBFP-tagged GATA3 DNA binding domain (aa 259-369) [not stated] (parent complex)
chain 1: KLRVALSNHLLWSKFNQHQTEMIITKQGRRMFPFLSFTVAGLEPTSHYRMFVDVVLVDQHHWRYQSGKWVQCGKAEGSMPGNRLYVHPDSPNTGAHWMRQEVSFGKLKLTNNKGASNNVTQMIVLQSLHKYQPRLHIVEVNDGEPEAACSASNTHVFTFQETQFIAVTAYQNAEITQLKIDNNPFAKGFREN
chain 2: not shown

Variants of B1 are the subject of this experiment. Put plainly: flow-cytometric FRET; HEK293T cells; parent: 0.036; read off a plot.
For the variant chain 1 R29A, chain 1 R30A, the response is roughly -0.004 DFRET.

In the case of chain 1 E76A, the response was roughly 0.043 DFRET.

Regarding chain 1 I123E, the response was roughly -0.001 DFRET. Next, chain 1 K26A: roughly 0.018 DFRET; chain 1 R190W: roughly -0.001 DFRET; chain 1 K113L: roughly 0.041 DFRET.

As for chain 1 V124W, the response is roughly 0.025 DFRET. The value for chain 1 Q126A was roughly 0.031 DFRET.
